Data from PMC4014985 (Scientific Reports, 2014).

Assays:
Assay in all cases: ITC
MBP-MCAF1Δ8 = biological target: MBP-MCAF1Δ8
[1] = biological target: 3-methyl purine DNA glycosylase (MPG) (UniProt P29372 18-298)
MBP-HDAC3 = MBP-HDAC3 (UniProt O15379 1-428)
Chain of MBP-HDAC3 (O15379 whole entry): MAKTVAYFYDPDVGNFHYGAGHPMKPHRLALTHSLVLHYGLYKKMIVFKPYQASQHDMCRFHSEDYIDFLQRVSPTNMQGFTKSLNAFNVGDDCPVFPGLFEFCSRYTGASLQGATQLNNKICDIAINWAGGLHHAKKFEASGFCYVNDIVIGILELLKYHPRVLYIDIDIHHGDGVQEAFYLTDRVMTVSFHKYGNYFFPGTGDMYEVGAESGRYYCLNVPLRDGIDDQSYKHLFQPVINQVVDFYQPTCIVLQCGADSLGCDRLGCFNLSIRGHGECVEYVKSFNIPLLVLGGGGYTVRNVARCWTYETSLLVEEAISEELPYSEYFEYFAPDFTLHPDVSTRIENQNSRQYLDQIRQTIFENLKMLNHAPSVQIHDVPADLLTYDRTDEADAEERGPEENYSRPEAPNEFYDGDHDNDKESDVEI

Chain of 3-methyl purine DNA glycosylase (MPG) (P29372 18-298): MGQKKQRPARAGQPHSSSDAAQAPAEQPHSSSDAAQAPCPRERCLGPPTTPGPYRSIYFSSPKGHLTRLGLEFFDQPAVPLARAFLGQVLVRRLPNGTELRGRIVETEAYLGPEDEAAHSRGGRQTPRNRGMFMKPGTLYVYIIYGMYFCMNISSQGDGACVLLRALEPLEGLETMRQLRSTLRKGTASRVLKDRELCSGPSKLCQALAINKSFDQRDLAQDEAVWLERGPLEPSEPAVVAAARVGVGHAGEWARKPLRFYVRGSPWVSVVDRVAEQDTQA

Ka (MBP-MCAF1Δ8): 160000 M⁻¹
Kd (MBP-MCAF1Δ8): 6400 nM
dH (MBP-MCAF1Δ8): -3.92 kcal/mol
stoichiometry N (MBP-MCAF1Δ8): 1.06
Ka [1]: 450000 ± 0.09 M⁻¹
Kd [1]: 2290 ± 490 nM
dH [1]: -0.87 ± 0.09 kcal/mol
stoichiometry N [1]: 1.1 ± 0.11
Ka (MBP-HDAC3): 430000 ± 0.07 M⁻¹
Kd (MBP-HDAC3): 2350 ± 370 nM
dH (MBP-HDAC3): -1.75 ± 0.78 kcal/mol
stoichiometry N (MBP-HDAC3): 0.98 ± 0.06
B1: C-terminus of MBD1 (MBD1-c, residues D507-Q605) (domain or fragment, human, UniProt Q9UIS9 507-605, looked up)
chain: DEWTPGTAVLTSPVLVPGCPSKAVDPGLPSVKQEPPDPEEDKEENKDDSASKLAPEEEAGGAGTPVITEIFSLGGTRFRDTAVWLPRSKDLKKPGARKQ
